From patent US6093692A, “Method and compositions for lipidization of hydrophilic molecules” (The University of Southern California, priority 1997, dated 2000)

Assays:
[1] = system: C3H 10T1/2(clone 8) cells; assay: In vitro transformation assay (MCA-induced); assay type: cell-based
Method: Transformation assays were carried out using C3H 10T1/2(clone 8) cells according to the published recommendations [Reznikoff, C. A., et al., Cancer. Res., 33:3239-3249 (1973); Reznikoff, C. A., et al., Cancer. Res., 33:3231-3238 (1973)]. Stock cultures of mycoplasma-free cells were maintained by passing 50,000 cells per 75 cm^2 flask every seven days. Using this schedule, the cells were always passed approximately 2 days before reaching confluence. The stock culture was grown in Eagle's basal medium supplemented with 10% FBS, penicillin (100 units), and streptomycin (100 μg) and used for the transformation assays at passages of 9 to 14. The cells were passed by treating the stock cells with trypsin (0.1%) in PBS for 5 min and quenching the trypsin with 5 ml of the medium. This procedure was adapted to minimize spontaneous transformation in the stock cultures and maximize the plating efficiency in the petri dishes. The FBS stock used in the cultures was pre-screened to ensure that the serum was able to support the expression and the growth of the transformed cells.
For the transformation assays, C3H 10T1/2 cells (1000/dish) were seeded into 60 mm petri dishes and allowed to grow in a humidified 5% CO2 atmosphere in Eagle's basal medium, supplemented with 10% FBS, penicillin (100 units), and streptomycin (100 μg), for 24 hr. Subsequently, the cells were initiated by treatment with 25 μl of the 3-methylcholanthrene (MCA) in acetone stock solution ([…]) to a final concentration of 1 μg/ml of MCA (5 μg/5 ml). The cells were allowed to grow in the presence of the carcinogen or solvent for 24 hr, and the medium in each dish was then replaced with fresh medium containing no carcinogen or solvent. The medium in the dishes was replaced twice per week for the first two weeks of the assay, and thereafter once a week for the remainder four weeks of the assay. In the experiments designed to determine the transformation inhibitory activity of the conjugates, the cells were maintained in the medium containing the conjugates (1 μg/ml) for the first three weeks of the assay; thereafter, the cells were maintained in medium containing no added conjugates.
Six weeks after the carcinogen treatment, the cells were inspected under a microscope for adherence to the culture dishes and were washed with PBS and then fixed in 100% methanol. The fixed monolayers were then stained with Giemsa stain. Twenty dishes per group were treated in each experiment. In addition to the test groups, all the transformation assays contained at least three other groups: negative control (not treated with carcinogen or solvent), acetone control (treated with 25 μl of acetone), and positive control [treated with MCA (1 μg/ml) in 25 μl of acetone]. The transformed foci (>3 mm in diameter) in the plates were studied under a microscope and classified according to published guidelines as types I, II, or III [Landolph, J. R., Transfomatin assay of established cell lines: Mechanism and Application (ed. Kakunaga, T., and Yamasaki, H.) IARC Scientific Publications, Lyon, France pp. 185-201 (1985)]. Briefly, type III foci were dense, multilayered, basophilic, areas of cell growth which stained to a deep blue color with Giemsa and had rough crisscrossed edges. Type II foci were also dense, multilayered, areas of cell growth, but were stained to a purple color with Giemsa and had smoother, more defined edges compared to Type III foci. Type I foci were not scored in the assay.
BBI, either as the free protein or in conjugated form to palmitic or oleic acid, was added to the cultures at 1.0 μg/ml for the first three weeks of the transformation assay period starting immediately after the MCA treatment. MCA-treated cells were exposed to 3-methylcholanthrene, dissolved in 25 μl of acetone, at a concentration of 1 μg/ml for 24 hr. Acetone-treated cells were exposed to 25 μl of acetone for 24 hr only. […]

[2] = assay type: in vitro ADME, hairless mice
Method: Freshly-prepared skins from hairless mice were mounted on small rings. To each mounted skin, a 5 μl sample of ^125 I-labeled BBI or BBIssPal at a concentration of 0.5 mg/ml was applied to an area of 0.38 cm^2. Two pieces of skin were used per treatment. The skins were kept at room temperature (23° C.) in a humidified environment. After 30 minutes, the surface of the skins was first rinsed carefully with PBS; subsequently, the skins were unmounted and soaked twice in 100 ml of PBS. The skins were then blotted with filter papers and counted in a gamma counter. The amount of BBI retained on the skins was calculated using the specific radioactivity of the labeled BBI or BBIssPal. The absorption of BBI and BBIssPal into the mouse skins was 0.14 and 1.6 μg/cm^2, respectively.

[3] = MCA 1 μg/ml 24 hr, conjugates 1.0 μg/ml first three weeks, scored at six weeks

B1: BBIssPal: the palmityl disulfide conjugate of BBI (conjugate, UniProt P01055 40-110, looked up)
Bowman-Birk type proteinase …: DDESSKPCCDQCACTKSNPPQCRCSDMRLNSCHSACKSCICALSYPAQCFCVDITDFCYEPCKPSEDDKEN
modifications: palmityl disulfide; 125I
notes: the palmityl disulfide conjugate of BBI
Question: With B1 as the molecule, how does the “Retention of anti-transformation activity of BBI” value ([1]; 1.0 μg/ml) read?
Answer: The value was “retained the original biological activity of BBI”.

Question: And the “Transformed foci” value ([1]; MCA 1 μg/ml 24 hr, conjugates 1.0 μg/ml first three weeks)?
Answer: Its value is “one type II focus out of the 20 dishes”.

Question: And the “Fraction of dishes containing transformed foci” value [1, 3]?
Answer: The value was 0.05.

Question: And the “No. of dishes with transformed foci/No. of dishes” value [1, 3]?
Answer: The value was 1/20.

Question: And the “Increase of BBI absorption into the skin” value [2]?
Answer: The value was “more than 10 fold”.
